# Source: US20260234655A1, “Nuclear Targeted DNA Delivery and Compositions for Use in Practicing the Same” (Seawolf Therapeutics, Inc., priority 2022, published 2026)
# B1: DTS with 5 repeats of TetO: DNA with GFP cassette and DTS of 5 TetO repeats (nucleic acid)
# DNA: CTCGAGTTTACTCCCTATCAGTGATAGAGAACGTATGTCGAGTTTACTCCCTATCAGTGATAGAGAACGATGTCGAGTTTACTCCCTATCAGTGATAGAGAACGTATGTCGAGTTTACTCCCTATCAGTGATAGAGAACGTATGTCGAGTTTACTCCCTATCAGTGATAGAGAACGTATGTCGAGTTTA
# B2: DTS with 4 repeats of TetO: DNA with GFP cassette and DTS of 4 TetO repeats (nucleic acid)
# DNA: CTCGAGTTTACTCCCTATCAGTGATAGAGAACGTATGTCGAGTTTACTCCCTATCAGTGATAGAGAACGATGTCGAGTTTACTCCCTATCAGTGATAGAGAACGTATGTCGAGTTTACTCCCTATCAGTGATAGAGAACGTATGTCGAGTTTAC
# B3: DTS with 7 repeats of UAS: DNA with GFP cassette and DTS of 7 UAS repeats (nucleic acid)
# DNA: CGGAGGACTGTCCTCCGTGAGTCCTAGCGGAGGACTGTCCTCCGTCTTCACAGGCGGAGGACTGTCCTCCGTAGGGTTCCTCGGAGGACTGTCCTCCGACACTAGAGTCGGAGGACTGTCCTCCGGATAGTATCACGGAGGACTGTCCTCCGAGCAAACGAACGGAGGACTGTCCTCCG
# B4: DTS with 10 repeats of UAS: DNA with GFP cassette and DTS of 10 UAS repeats (nucleic acid)
# DNA: CGGAGGACTGTCCTCCGTGAGTCCTAGCGGAGGACTGTCCTCCGTCTTCACAGGCGGAGGACTGTCCTCCGTAGGGTTCCTCGGAGGACTGTCCTCCGACACTAGAGTCGGAGGACTGTCCTCCGGATAGTATCACGGAGGACTGTCCTCCGAATGGACTAACGGAGGACTGTCCTCCGAGCAAACGAACGGAGGACTGTCCTCCGTACACCGATCCGGAGGACTGTCCTCCGGCGCTCGGCACGGAGGACTGTCCTCCG
# B5: DTS with 3 repeats of TetO: DNA with GFP cassette and DTS of 3 TetO repeats (nucleic acid)
# DNA: CTCGAGTTTACTCCCTATCAGTGATAGAGAACGTATGTCGAGTTTACTCCCTATCAGTGATAGAGAACGATGTCGAGTTTACTCCCTATCAGTGATAGAGAACGTATGTCGAGTTTAC
# modifications: DNA nuclear targeting sequence within DNA carrying a GFP cassette, further chemistry not given here
# notes: DNA with GFP cassette and DTS of 3 TetO repeats
# B6: DTS with 6 repeats of TetO: DNA with GFP cassette and DTS of 6 TetO repeats (nucleic acid)
# DNA: CTCGAGTTTACTCCCTATCAGTGATAGAGAACGTATGTCGAGTTTACTCCCTATCAGTGATAGAGAACGATGTCGAGTTTACTCCCTATCAGTGATAGAGAACGTATGTCGAGTTTACTCCCTATCAGTGATAGAGAACGTATGTCGAGTTTACTCCCTATCAGTGATAGAGAACGTATGTCGAGTTTATCCCTATCAGTGATAGAGAACGTATGTCGAGTTTAC
# B7: DTS with 2 repeats of TetO: DNA with GFP cassette and DTS of 2 TetO repeats (nucleic acid)
# DNA: CTCGAGTTTACTCCCTATCAGTGATAGAGAACGTATGTCGAGTTTACTCCCTATCAGTGATAGAGAACGATGTCGAGTTTAC
# modifications: DNA nuclear targeting sequence within DNA carrying a GFP cassette, further chemistry not given here
# notes: DNA with GFP cassette and DTS of 2 TetO repeats
# B8: DTS with 3 repeats of UAS: DNA with GFP cassette and DTS of 3 UAS repeats (nucleic acid)
# DNA: CGGAGGACTGTCCTCCGTGAGTCCTAGCGGAGGACTGTCCTCCGTCTTCACAGGCGGAGGACTGTCCTCCG
# modifications: DNA nuclear targeting sequence within DNA carrying a GFP cassette, further chemistry not given here
# notes: DNA with GFP cassette and DTS of 3 UAS repeats
# B9: DTS with 7 repeats of TetO: DNA with GFP cassette and DTS of 7 TetO repeats (nucleic acid)
# DNA: CTCGAGTTTACTCCCTATCAGTGATAGAGAACGTATGTCGAGTTTACTCCCTATCAGTGATAGAGAACGATGTCGAGTTTACTCCCTATCAGTGATAGAGAACGTATGTCGAGTTTACTCCCTATCAGTGATAGAGAACGTATGTCGAGTTTACTCCCTATCAGTGATAGAGAACGTATGTCGAGTTTATCCCTATCAGTGATAGAGAACGTATGTCGAGTTTACTCCCTATCAGTGATAGAGAACGTATGTCGAGGTAGGCGTGTACGGTGGGAGGCCTATATAAGCAGAGCTCGTTTAGTGAACCGTCAGATCGCCTGGAGAATTCA
# B10: DTS with 5 repeats of UAS: DNA with GFP cassette and DTS of 5 UAS repeats (nucleic acid)
# DNA: CGGAGGACTGTCCTCCGTGAGTCCTAGCGGAGGACTGTCCTCCGTCTTCACAGGCGGAGGACTGTCCTCCGTAGGGTTCCTCGGAGGACTGTCCTCCGACACTAGAGTCGGAGGACTGTCCTCCG
# modifications: DNA nuclear targeting sequence within DNA carrying a GFP cassette, further chemistry not given here
# notes: DNA with GFP cassette and DTS of 5 UAS repeats
# B11: DTS with 4 repeats of UAS: DNA with GFP cassette and DTS of 4 UAS repeats (nucleic acid)
# DNA: CGGAGGACTGTCCTCCGTGAGTCCTAGCGGAGGACTGTCCTCCGTCTTCACAGGCGGAGGACTGTCCTCCGTAGGGTTCCTCGGAGGACTGTCCTCCG
# modifications: DNA nuclear targeting sequence within DNA carrying a GFP cassette, further chemistry not given here
# notes: DNA with GFP cassette and DTS of 4 UAS repeats
# Tested on: growth-arrested HepG2 cells
# Assay: Number of TFBS repeats in the DTS (TetO, UAS), co-transfection with TetR or Gal4 mRNA in growth-arrested HepG2 cells; GFP intensity
# Type: cell-based
# Settings: for gene expression over DNA alone on co-transfection with Gal4 mRNA / gene expression over DNA alone on co-transfection with TetR mRNA: growth-arrested HepG2 cells; for gene expression over DNA alone on co-transfection with Gal4 mRNA: 12 h
# Protocol: Co-transfection of DNA and mRNA into HepG2 cells. HepG2 cells were purchased from ATCC and grown in complete media (EMEM+10% fetal bovine serum, ATCC). For co-transfection experiments, cells were seeded at confluence onto collagen coated 384-well plates and cultured for 48 hours in complete media followed by 48 hours in complete media supplemented with […] aphidicolin to prevent cell division. After the outgrowth period, cells were transfected using Lipofectamine3000 (Invitrogen) transfection reagent according to the manufacturer's instructions. RNA and DNA were independently complexed with Lipofectamine3000 in Opti-MEM I (Gibco) for 15 minutes. RNA and DNA complexes were then mixed, followed by 1:10 dilution into complete media supplemented with 0.75 μM aphidicolin. Media was aspirated from the plated HepG2 cells and replaced with the transfection mix. DNA was transfected from 17.5 ng to 4.38 ng per well. mRNA was transfected from 70 ng to 0.07 ng per well. Cells were live-imaged using a 4× objective with a GFP filter set and brightfield at 3-hour intervals for 72 hours using a Cytation5 automated microscope (Agilent) attached to a BioSpa8 automated incubator (Agilent). Gen5IPrime (Agilent) image analysis software was used to quantify the number of GFP cells and GFP Intensity per well.
# In this study, DNAs were engineered to comprise DTSs having different numbers of TFBS repeats for TetR or Gal4, and the impact of multiple sequences assessed in vitro by co-transfection of mRNA encoding TetR or Gal4 NTF. Growth-arrested HepG2 cells were co-transfected with mRNA encoding the NTF protein along with DNA comprising a cognate DTS and a GFP expression cassette. Each NTF mRNA was paired with a cognate DNA in the co-transfection, where the cognate DNA comprised a DTS with varying numbers of cognate TFBS repeats. For example, the TetR mRNA was paired with DNAs comprising DTSs with 2, 3, 4, 5, 6, or 7 repeats of a TetR TFBS (e.g., TetO). Twenty-four hours after transfection, GFP expression was assessed by measuring GFP fluorescence intensity.
# The increase in gene expression appeared to increase with the number of TetO repeats in the DTS, with 7 repeats producing an increase in GFP expression greater than 10-fold at the highest amount of RNA (e.g., 17.5 ng RNA) compared to DNA alone (FIG. 16A).
# The Gal4 mRNA was paired with DNAs comprising DTSs with 1, 2, 3, 4, 5, 7, or 10 repeats of a Gal4 TFBS (e.g., UAS). Twelve hours after transfection, GFP expression was assessed by measuring GFP fluorescence intensity. […] The increase in gene expression appeared to increase with the number of UAS repeats in the DTS up to 5 repeats, while the increase in gene expression appeared saturable as 5, 7, and 10 repeats performed similarly (FIG. 16B). Co-transfection of Gal4 mRNA and DNA comprising a DTS of 5, 7, or 10 repeats produced an increase in GFP expression greater than 10-fold at the highest amount of RNA (e.g., 17.5 ng RNA) compared to DNA alone (e.g., 0 ng RNA) in HepG2 cells (FIG. 16B).
Molecule,gene expression over DNA alone on co-transfection with Gal4 mRNA,gene expression over DNA alone on co-transfection with TetR mRNA (24 h),"increase in GFP expression compared to DNA alone on co-transfection with TetR mRNA (highest amount of RNA (17.5 ng RNA), 24 h)"
"DTS with 1 repeat of UAS: DNA with GFP cassette and DTS of 1 UAS (Gal4 TFBS) (DNA ACACTAGAGTCGGAGGACTGTCCTCCGTGAGTCCTAG; DNA nuclear targeting sequence within DNA carrying a GFP cassette, further chemistry not given here)",did not substantially increase gene expression,–,–
"DTS with 2 repeats of UAS: DNA with GFP cassette and DTS of 2 UAS repeats (DNA CGGAGGACTGTCCTCCGTGAGTCCTAGCGGAGGACTGTCCTCCG; DNA nuclear targeting sequence within DNA carrying a GFP cassette, further chemistry not given here)",did not substantially increase gene expression,–,–
B1,–,did substantially increase gene expression,–
B2,–,did substantially increase gene expression,–
B3,did substantially increase gene expression,–,–
B4,did substantially increase gene expression,–,–
B5,–,did substantially increase gene expression,–
B6,–,did substantially increase gene expression,–
B7,–,did not substantially increase gene expression,–
B8,did substantially increase gene expression,–,–
B9,–,did substantially increase gene expression,greater than 10 fold
B10,did substantially increase gene expression,–,–
B11,did substantially increase gene expression,–,–
